Experiment: yeast display, Sf9 membrane polyspecificity reagent, FACS + sequencing; frameworks hold sequencing errors
How it was run: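 A synthetic nanobody library was expressed on Saccharomyces cerevisiae BJ5465 by galactose induction for 36–48 hours. The library was stained for 1 hour at 4 °C with 10% biotinylated, detergent-solubilized Sf9 membrane reagent and enriched with streptavidin microbeads before FACS. Low and high (top ~1%) gates were set on anti-HA fluorescence for expression and streptavidin fluorescence for reagent binding, and each polyreactivity label reflects the gate of origin.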

Sequence	polyreactivity (PSR sort gate)
QFQLVESGGGLVQAGGSLRLSCAASGFTIGPYTMAWYRQAPGKERELVAAISYSGASTYYADSVKGRFTISRDNAKNTVYLQMNSLKPEDTAVYYCNTVYRFTRARYPYDYWGQGTQVTVSS	high polyreactivity
QFQLVESGGGLVQAGGSLRLSCAASGFTSYRNALGWYRQAPGKERELVAAISRGDSTYYADSVKGRFTISRDNAKNTVYLQMNSLKAEDTAVYYCATPPTVYGWLAGYDYWGQGTQVTVSS	low polyreactivity
QFQLVESGGGLVQAGGSLRLSCAASGIIFYENNMGWYRQAPGKERELVAAINSGGSTYYADSVKGRFTISRDNAKNTVYLQMNSLKPEDTAVYYCDADDYSGLYYSSTYRYEYWGQGTQVTVSS	low polyreactivity
QFQLVESGGGLVQAGGSLRLSCAASGINFSSYVMGWYRQAPGKERELVAAISKSGARTSYADSVKGRFSISRDNAKNTVYLQMNSLKPEDTAVYYCNAYTESWYPIYFFGWSYTAVDYWGQGTQVTVSS	low polyreactivity
QFQLVESGGGLVQAGGSLRLSCAASGITFYRYAMGWYRQAPGKERELVASISSRGSSTYYADSVKGRFTISRDNAKNTVYLQMNSLKPEDTAVYYCAKSRGSRGFVASTYNYWGQGTQVTVSS	high polyreactivity
QFQLVESGGGLVQAGGSLRLSCAASGLIFYFYAMGWYRQAPGKEREFVAAISSGGDTYYADSVKGRFTISRDNAKNTVYLQMNSLKPEDNAVYYCAARRYRRGRSDYWGQGTQVTVSS	high polyreactivity
QFQLVESGGGLVQAGGSLRLSCAASGRIFARNTMGWYRQAAGKERELVAAITYSGGNTYYADSVKGRFTISRDNAKNTVYLQMNSLKPEDTAVYDCNKASFGRLRKKIMDYWGQGTQVTVSS	high polyreactivity
QFQLVESGGGLVQAGGSLRLSCAASGRIFCSYAMGWYIQAPGKERELVAAITSGGSTNYADSVKARFTISRDNAKNTVYLLMNSLKQEDTAVYYCADVEYLRESDYWGQGTQVTVSS	low polyreactivity
QFQLVESGGGLVQAGGSLRLSCAASGRIFGGYAMGWYRQAPVKERELVAAIRDSGRTYYADSVKGRFTISRDNAKNTVYLQMNSLKQEDTAVYYFAADAHSTYAPFRWYDYCGQGTQVTVSS	low polyreactivity
QFQLVESGGGLVQAGGSLRLSCAASGRIFRYYDMGWYRQAPGKERELVAAISFSGGSTYYADSVKGRFTISRDNAKNTVYLQMNSLKQEDTAVYYCAAGWRALYLSTYDYWGQGTQVTVSS	high polyreactivity
QFQLVESGGGLVQAGGSLRLSCAASGRIFVYNDMVWYRQAPGKEREFVATITSSGGRTYYADSVKGRFTISRDNAKNTVYLQMNRLKPEDTAVYYCNKVGYSNLLGYDYWGQGTQVTVSS	high polyreactivity
QFQLVESGGGLVQAGGSLRLSCAASGRIFYKYVMGWYRQAPGKERELVAAINRSGGTTYYADSVKGRFTISRDNAKNTVYLQMNSLKPEDTAVYYCNATLPDYWPYYYYQGGDDYWGQGTQVTVSS	low polyreactivity
QFQLVESGGGLVQAGGSLRLSCAASGRIFYSYAMGWYRQAPGKERELVAAISRSGTSTFYADSLKGRFTISRDNAKNTVYLQMNSLKPEDTAVYYCNAVISPYVIRSEYWGQGTQVTVSS	low polyreactivity
QFQLVESGGGLVQAGGSLRLSCAASGRIFYYYAMGWDRQAPGKERELVASINSVGTTTYADSVKGRFTISRDNAKNTVYLQMNSLKPEDTAVYYCARDTGSIYYDGYEYDYWGQGTQVTVSS	low polyreactivity
QFQLVESGGGLVQAGGSLRLSCAASGRTFVINAMGWYRQAPGKERELVAAISRGGSRTFYADSVKGLFTISRDTAKNTVYLQMNSLKPVDTAVYYCNAVAQSGRYDYWGQGTQVTVSS	high polyreactivity
QFQLVESGGGLVQAGGSLRLSCAASGRTLYGYAMGLYRQAPGKERELVAAISGSGTITYYADSVKGRFTISRDNAKNTVYLQMNSLKPEDTAVYYCNKRRAGQSRRVDSWGQGTQVTVSS	high polyreactivity

Sequence	polyreactivity (PSR sort gate)
QFQLVESGGGLVQAGGSLRLSCAASGSIFISNAMGWYRQAPGKERDLVAAISWTSGSTYYADSVKGRFTISRDNAKNTVYLQMNSLKPVDTAFYYCAALGGAALDWGVVEVGYWGKGTQVTVSS	low polyreactivity
QFQLVESGGGLVQAGGSLRLSCAASGSIFSVYTMGWYRQAPGKERELVAAISTGGGSTYYADSVKGRFTISRDNAKNTVYLQMNSLKPEDTAVYYCATDYGWAPSYWYDSCGQGTQVTVSS	low polyreactivity
QFQLVESGGGLVQAGGSLRLSCAASGSIFTYNVMGWYRQAPRKERELVAAISDGDGSTYADSVKGRFTISRDNAKNTVYLQMNSLKPEDTAVYYCAAVDGRYLGGFNSRDGDWGQGTQVTVSS	low polyreactivity
QFQLVESGGGLVQAGGSLRLSCAASGSTFGYYAMGWYRQAPGKERELVAAISWSGDSTYYADSVKGRFSISRDNAKNTVYLQMNSLKPEDTAVYYCAAEVEYGYDYWGQGTQVTVSS	high polyreactivity
QFQLVESGGGLVQAGGSLRLSCAASGSTFKSYAMGWYRQAPGKEREFVAVITWSGGRTSYADSVKGRFTISRDNAKNTVYLQMNSLKPEDTAVYYCAAKAASRYRAFTYDYWGQGTQVTVSS	low polyreactivity
QFQLVESGGGLVQAGGSLRLSCAASGSTFPYYAMGWYRQAPGNERELVASIRKRGGGTYYADSVKGRFTISRDNAKNTVYFQMNILKPEDTAVYYCAVRVYQFRYTGYDYWGQGTQVTVSS	high polyreactivity
QFQLVESGGGLVQAGGSLRLSCAASGSTFTPYDMGWYRQAPGKERELVAVITGSDGTYYADSVKGRFTISRDNAKNTVYLQMNSLKPEDTAVYYCATDWTFGRWSTLGVEMDYWGQGTQVTVSS	low polyreactivity
QFQLVESGGGLVQAGGSLRLSCAASGSTFVWNAMGWYRPAPGKERELVAAITNDGRTNYADSVKGRFTISRDNAKNTVYLKMNSLKPEDTAVYYCNADGYNSYWWNYYWGQGTQVTVSS	low polyreactivity
QFQLVESGGGLVQAGGSLRLSCAASGSTFYTNAMGWYRQAPGKERELVAAITSRTGSTYYADSVKGRFTISRDNAKNTVYLQMNSLKPEDTAVYYCAADIYDWGGHYEYWGQGTQVTVSS	high polyreactivity
QFQLVESGGGLVQAGGSLRLSCAASGSTINPNTMVWSREAPGKERELVAVISSGGSTYYADSVKGRFTISRDNATNTVYLQMNSLKPEDSAVYYCAADRGTVSYLYCPRAVYYWGQGTQVTVSS	low polyreactivity
QFQLVESGGGLVQAGGSLRLSCAASGSTLRLNVMGWYRQAPGKERELVARISRGCSTYYADSVKGRFTISRDNAKNTVYLQMNSLKPEDTAVYYCTAQSYPCVTPYSYWGQGTQVTVSS	low polyreactivity
QFQLVESGGGLVQAGGSLRLSCAATGSIFRGNAMGWYRQAPGKERELVAGINRAGSTKYADSVKGRFTISRDNAKNTVYLQMNSLKPEDTAVYYCAAVRYERGLWSDYWGQGTQVTVSS	high polyreactivity
QFQLVESGGGLVQAGGSLRLSCAAYGSTLYPYEMGWYRQAPGKERELVAAIDSGGSKNYADSVKGRFTISRDNAKNTVYLQMNSLKPEDTAVYYCAADGGVAWGYGYWGQGTQVTVSS	low polyreactivity
QFQLVESGGGLVQAGGSLRLSFAPSGSTFSYYAMGWYRPAPGKERELVAAISSRGGSTYYADSVKGRFTISRYNAKNTFYFQMNCLKAEDTDVYYSAAVLRGPDPTSTYYSWGQGTQVTVSS	high polyreactivity
QFQLVESGGGLVQAGGSLRLSSAASGFTFIRYAMGWYRPAPGKERELVAAITVSGTRTYYADSVKGRFTISRDNAKNTVYLQMNSLKPEDTAVYYCNARDVYTGYGMGYWGQGTQVTVSS	high polyreactivity

From the nanobody polyreactivity screen of Harvey et al. (2022)
